From patent publication US20260216242A1 (ALMAC DISCOVERY, published 2026)

T1: ALPI His homodimer (human, UniProt P09923 20-503)
T1 construct: Whole entry with His tag; used in ELISA and BLI; also called hALPI
T1 sequence: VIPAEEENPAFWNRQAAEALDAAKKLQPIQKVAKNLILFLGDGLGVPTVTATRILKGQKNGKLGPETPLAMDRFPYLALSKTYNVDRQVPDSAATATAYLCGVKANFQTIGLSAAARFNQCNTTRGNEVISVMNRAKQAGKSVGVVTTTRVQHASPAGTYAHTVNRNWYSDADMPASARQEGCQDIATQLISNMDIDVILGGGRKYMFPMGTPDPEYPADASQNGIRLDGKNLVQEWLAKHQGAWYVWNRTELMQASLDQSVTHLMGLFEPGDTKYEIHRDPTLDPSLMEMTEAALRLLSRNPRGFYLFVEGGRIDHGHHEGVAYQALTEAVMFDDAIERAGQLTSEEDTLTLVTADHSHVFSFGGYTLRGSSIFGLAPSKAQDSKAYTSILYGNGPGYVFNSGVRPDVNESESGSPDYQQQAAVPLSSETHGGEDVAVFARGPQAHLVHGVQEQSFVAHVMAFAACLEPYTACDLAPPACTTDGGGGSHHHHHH

T2: Human ALPPL2 (leucine zipper) (human)
T2 construct: Whole entry: fused with a cysteine stabilised leucine zipper and His tag; also called hALPPL2
T2 chain: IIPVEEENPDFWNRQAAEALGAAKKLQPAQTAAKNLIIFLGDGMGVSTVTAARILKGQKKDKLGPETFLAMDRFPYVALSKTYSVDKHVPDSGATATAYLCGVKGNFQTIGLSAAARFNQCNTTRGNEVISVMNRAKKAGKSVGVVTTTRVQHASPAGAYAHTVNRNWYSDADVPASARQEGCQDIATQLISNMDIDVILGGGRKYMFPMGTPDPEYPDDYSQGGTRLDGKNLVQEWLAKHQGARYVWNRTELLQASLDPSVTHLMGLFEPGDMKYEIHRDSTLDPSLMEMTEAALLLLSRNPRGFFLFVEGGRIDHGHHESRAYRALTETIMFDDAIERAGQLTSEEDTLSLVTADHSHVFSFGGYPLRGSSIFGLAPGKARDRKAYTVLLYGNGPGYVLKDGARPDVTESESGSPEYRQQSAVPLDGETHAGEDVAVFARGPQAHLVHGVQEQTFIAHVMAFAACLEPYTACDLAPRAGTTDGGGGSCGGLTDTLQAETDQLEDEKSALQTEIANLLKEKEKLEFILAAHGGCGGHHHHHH

T3: human ALPI on CHO cells (human, UniProt P09923 20-503)
T3 construct: whole, on cells; also called CHO-ALPI
T3 sequence (looked up): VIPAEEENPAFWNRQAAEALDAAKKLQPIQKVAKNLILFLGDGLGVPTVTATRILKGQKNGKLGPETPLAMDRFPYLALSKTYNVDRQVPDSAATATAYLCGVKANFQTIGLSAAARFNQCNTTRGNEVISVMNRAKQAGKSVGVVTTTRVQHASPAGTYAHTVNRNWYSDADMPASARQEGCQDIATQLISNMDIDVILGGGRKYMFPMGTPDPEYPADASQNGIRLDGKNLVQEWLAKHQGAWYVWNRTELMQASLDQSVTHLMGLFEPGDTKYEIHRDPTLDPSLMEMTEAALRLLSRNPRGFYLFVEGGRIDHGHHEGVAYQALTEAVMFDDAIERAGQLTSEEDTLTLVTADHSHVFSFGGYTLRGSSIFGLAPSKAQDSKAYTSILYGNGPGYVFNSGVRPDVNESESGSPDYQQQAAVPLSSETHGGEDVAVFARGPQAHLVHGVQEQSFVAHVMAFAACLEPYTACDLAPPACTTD


Experiments:
ALPI His homodimer = target: T1, ALPI His homodimer; assay: ELISA, antigen coated
Excerpt: ELISA was used to test the binding and specificity of the VHHs. […] Anti-Llama—HRP antibody was used for detection.

[1] = target: T2, Human ALPPL2 (leucine zipper); assay: BLI, antigen immobilised
Method: Binding kinetics were determined using the Biolayer Interferometry (BLI) Octet K2 system (Sartorius). […] All assays were conducted in PBS with a plate temperature of 25° C. Ka (M⁻¹s⁻¹), Kd (s⁻¹) and KD (nM) values were determined using Octet Data Analysis High Throughput software (ForteBio) for Biolayer Interferometry.

human ALPP on CHO cells = target: T4, human ALPP on CHO cells (human, UniProt P05187 23-506); assay: flow cytometry, CHO cells, KDapp
T4 construct: whole, on cells; also called CHO-ALPP
T4 sequence (P05187 23-506): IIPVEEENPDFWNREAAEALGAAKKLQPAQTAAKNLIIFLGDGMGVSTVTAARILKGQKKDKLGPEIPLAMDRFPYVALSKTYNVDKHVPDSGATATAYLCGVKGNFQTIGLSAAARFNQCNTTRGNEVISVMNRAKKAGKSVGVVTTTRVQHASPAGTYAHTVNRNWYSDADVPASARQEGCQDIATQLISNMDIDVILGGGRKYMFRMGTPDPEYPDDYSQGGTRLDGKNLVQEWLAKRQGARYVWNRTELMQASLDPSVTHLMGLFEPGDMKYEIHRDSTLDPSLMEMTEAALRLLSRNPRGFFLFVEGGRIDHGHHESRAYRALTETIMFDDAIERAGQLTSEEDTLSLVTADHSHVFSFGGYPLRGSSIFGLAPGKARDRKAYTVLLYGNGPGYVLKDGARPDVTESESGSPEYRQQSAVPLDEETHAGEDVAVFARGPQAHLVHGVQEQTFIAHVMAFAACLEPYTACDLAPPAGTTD
Method: (§1) Cell surface binding of test agents to hALPP isoforms was characterized in four CHO-ALPP isoform stably transfected cell lines (CHO-ALPP, CHO-ALPPL2, CHO-ALPI and CHO-ALPL) and the resulting KDapp values determined. Adherent cells were detached from tissue culture flasks by incubating with 0.1% EDTA/PBS solution at 37° C. for ~10 minutes or until cells detached easily. Cells were re-suspended in ice-cold PBS/2% FCS in 15 ml tubes and centrifuged at 1700 rpm for 5 mins at 4° C. Supernatant was removed and the cell pellet re-suspended in PBS/2% FCS. […] Cells were incubated with 100 μl of test agents at a range of concentrations, plus controls for 1 hr on ice. The sample plate was centrifuged at 1700 rpm for 5 mins at 4° C. The supernatant was removed, and a wash performed by re-suspending the cell pellets in 0.25 mL of ice-cold PBS/2% FCS using a multichannel pipette. Samples were again centrifuged at 1700 rpm for 5 min at 4° C. Supernatant was removed and two further washes performed as described. After the final wash and centrifugation step, excess liquid was removed by blotting the plate on tissue paper. Binding of VHH (His6 tagged) agents was determined by adding 100 μl of anti-x6His tag Ab (Abcam) per cell pellet sample as appropriate and incubating on ice for 30 mins. Wash steps were performed as described previously. Fitc-anti-mouse antibody (ThermoFisher) was used to detect binding of the VHH (His6 tagged) agents by incubating with the appropriate samples for 30 min on ice in the dark. Wash steps were performed as described previously. All cell pellets were finally re-suspended in […] of ice-cold PBS/2% FCS and left on ice in the dark prior to analysis on a Merck-Millipore Guava EasyCyte HT or Thermo Fisher Attune N×T flow cytometer.

[2] = target: T5, human ALPPL2 on CHO cells (human, UniProt P10696 20-503); assay: flow cytometry, CHO cells, KDapp
T5 construct: whole, on cells; also called CHO-ALPPL2
Method: as §1

human ALPI on CHO cells = target: T3, human ALPI on CHO cells; assay: flow cytometry, CHO cells stably expressing human ALPI; His6-tagged VHH detected with anti-His tag Ab and FITC anti-mouse Ab
Method: C-terminal His tagged VHH proteins were assessed for ALPP, ALPPL2, ALPI and ALPL cell-surface binding by flow cytometry. Binders encompassing different epitope bins were screened on CHO cells stably expressing ALPP, ALPPL2, ALPI or ALPL. High levels of cell-surface proteins expression were confirmed for each of the cell-lines by flow cytometry.
as §1

| Binder | binding result (ALPI His homodimer) | Kd [1] [nM] | koff [1] [s⁻¹] | kon [1] [M⁻¹ s⁻¹] | Kd (human ALPP on CHO cells) [nM] | Kd [2] [nM] | binding result (human ALPI on CHO cells) |
| --- | --- | --- | --- | --- | --- | --- | --- |
| F08 His (VHH, not shown: small tags and cut ends, also called #269) VHH: QVQLVESGGGSVQAGGSLRLSCAASGPSLSNYAMGWFRQAPGKEREFVAGISWGGGRTSYTDSVKGRFTISRDNAKNTVYLQMNNLKPEDTGVYYCAGRYGRGRNVEYEYDYWGQGTQVTVSS | – | < 0.01 | < 1e-07 | 684000 | 5 | 3.3 | – |
| A06 His (VHH, not shown: small tags and cut ends, also called #250) VHH: QVHLVESGGGLVQAGGSLRLSCAASGRTFLSMGWFRQAPGKEREFVAAISWTGGSTGYADSVKGRFTISRESDKETMYLQMNSLKPEDTAVYYCAARGDVYYGGDDATRYKYWGQGTQVTVSS | no binding (tested: 500 ng VHH) | 5.04 | 0.000672 | 133000 | 42.4 | 28.3 | no binding (tested: 350 nM) |
| E10 His (VHH, not shown: small tags and cut ends, also called #265) VHH: QVQLVESGGGLVQAGGSLRLSCAVSGRALSDYNIGWFRQAPGKEREFVARKTWDGSSTRYDDSVKGRFTVSIEDAKNTAYLQMSSLKTEDTAVYYCAAGRYSRARGWEYDYWGQGTQVTVSS | no binding (tested: 500 ng VHH) | 0.0862 | 0.000141 | 1.64e+06 | 3.5 | 3.8 | no binding (tested: 350 nM) |
| F05 His (VHH, not shown: small tags and cut ends) VHH: QVQLVESGGGLVQAGGSLRLSCAASGRAFGDYNIGWFRQAPGKEREFVARRTWDGSSTRYDDSVKGRFTVSIDNAKNTAYLQMNSLKTEDTAVYYCAAGRYSRVRGWEYDYWGQGTQVTVSS | no binding (tested: 500 ng VHH) | 0.0954 | 0.000356 | 3.74e+06 | 2.3 | 1.8 | no binding (tested: 350 nM) |
| E06 His (VHH, not shown: small tags and cut ends) VHH: QVHLVESGGGLVQAGGSLRLSCAASRRSFSEYAMGWFRQAPGKEREFVAAIGWSGVIEYADSVKGRFTISRDNAKDTVYLQMNSLKPEDTAVYYCAAGLGIRVVSQTPAYWGQGTQVTVSS | no binding (tested: 500 ng VHH) | 0.0834 | 8.75e-05 | 1.05e+06 | 4.6 | 4.9 | no binding (tested: 350 nM) |

Further lines, results first:

| binding result (ALPI His homodimer) | Kd [1] [nM] | koff [1] [s⁻¹] | kon [1] [M⁻¹ s⁻¹] | Kd (human ALPP on CHO cells) [nM] | Kd [2] [nM] | binding result (human ALPI on CHO cells) | Binder |
| --- | --- | --- | --- | --- | --- | --- | --- |
| no binding (tested: 500 ng VHH) | 0.61 | 0.000288 | 471000 | 3.5 | 5.1 | no binding (tested: 350 nM) | C07 His (VHH, not shown: small tags and cut ends, also called #258) VHH: QVQLVESGGGLVQAGESLRLACAASGTIFSGNAVGWYRQAPEKQREWVSSITDYGDTDYAEAVKGRFTISRDNAKNTVYLQMNSLKPEDTAVYYCYVYQRGESEEYWGQGTQVTVSS |
| no binding (tested: 500 ng VHH) | 1.22 | 0.0028 | 2.3e+06 | 3.4 | – | no binding (tested: 350 nM) | D10 His (VHH, not shown: small tags and cut ends) VHH: QVQLVESGGGLVQPGGSLRLSCAASGSIFSVNTMGWYRQAPGKQRDLVAVATSGGTIHYADSVKGRFTISRDNAKNTVYLQMNSLKPEDTAVYYCNLVVPYGMIAGDHDYWGQGTKVTVSS |
| no binding (tested: 500 ng VHH) | – | – | – | 3.8 | 6 | no binding (tested: 350 nM) | A05 His (VHH, not shown: small tags and cut ends, also called #249) VHH: QVQLVESGGGLVQAGASLTLSCAASGFTFNTRSIVWFRQAPGKEREAVSCISKVAGSTYYGDSVQGRFSSSTDNAKNTVSLQMNSLKPEDTAVYTCAASFAPNCYGWSVAANMEYWGEGTMVTVSS |
| – | 2.92 | – | – | 4.2 | 19.5 | – | D04 His (VHH, not shown: small tags and cut ends) VHH: QVQLVESGGGLVQPGGSLRLSCAASESTFSINVMGWYRQAPGKQRELVATITSGDITNYADSVKGRFTISRDNAENTVYLRTNSLKPEDTAVYYCNARGEYHSGNEYDYWGQGTQVTVSS |
